Measured values published in publication PMC6907008.

How the values were obtained:
[1] = biological target: T1, HisZea (Lmo2686) (Listeria monocytogenes EGD-e) (UniProt Q8Y3Z3); experiment: competition; conditions: EMSA: 50 mM Tris pH 8.0, 300 mM NaCl, 10% glycerol, 50 ug/mL BSA, 1 ug yeast tRNA, 20 min room temperature; pull-down: 25 mM Tris pH 8.0, 150 mM KCl, 5 mM …
T1 sequence: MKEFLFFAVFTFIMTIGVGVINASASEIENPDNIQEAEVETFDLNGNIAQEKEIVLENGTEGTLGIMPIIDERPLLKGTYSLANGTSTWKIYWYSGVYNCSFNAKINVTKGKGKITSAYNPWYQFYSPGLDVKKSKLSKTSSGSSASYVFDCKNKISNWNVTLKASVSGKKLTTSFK

[2] = biological target: T1, HisZea (Lmo2686) (Listeria monocytogenes EGD-e); experiment: EMSA; conditions: EMSA: 50 mM Tris pH 8.0, 300 mM NaCl, 10% glycerol, 50 ug/mL BSA, 1 ug yeast tRNA, 20 min room temperature; pull-down: 25 mM Tris pH 8.0, 150 mM KCl, 5 mM …

| Sequence | binding [1] | binding [2] |
| --- | --- | --- |
| GGGUGUAAAAUGCAGCUUGAGUAAAAUGAAUGAGUGUGUUGUUUACCCCCAGAUUUAAUUCUGUGGUAUAUCGCGUAACCGGCGGCUGCUAUGGUGAUGGUAUAUGAAGGUAAACUGCCCUGAUUUGGUUUUACGUCACGUUUGUUUUAUAC [rli92] | binds | binds |
| GGAGUAGAAAAGACCAAUGUGGGUUCUUUUUUAUUUUGUCUUAAUAACUCUAAACCACAGACAAAUAUAAAUUGGAAAUCAACGUAAUAAUCGUAUUUCCUAUUACAAUAAUCGAGAUAUUGUCACACCCUGAAAUAUAAUUGUAAUGCAAUUAACCUAUAGAUGAAAAACUGU [rli143] | binds | binds |
